Results: patent publication US20250382346A1, “NEURONAL PROMOTERS AND USES THEREOF” (priority 2023, published 2025)

How the values were obtained:
[1] = test system: striatonigral projection neurons (D1 MSNs); assay: Retrograde labeling of striatal MSNs after AAV injection into the SNr, EYFP+ cell counting; assay type: in vivo, mice
Experimental: To improve efficiency, multiple rounds of mutations of AAV capsids were performed on a series of different serotypes. Mutations were introduced at three sites in the AAV8 capsid protein to make AAV8R, including N385D, insertion of […] (SEQ ID NO: 31) at position 588, and TS711-7121N. Two additional mutations of V183E and N41 IS were incorporated into the AAV8R12 capsid protein (FIG. 1A). The labeling pattern of the AAV8R12 capsid and G88 promoter combination was determined.
was inserted at the N587-R588 position; two other point mutations of the AAV2 Cap protein were made to develop rAAV2-retro. Similar mutations were then placed at equivalent positions for four other AAV serotypes (FIGS. 1A-1C and 25, TABLE 1), AAV1/5/6/8 (FIG. 1A). […] When administered into the SNr, 4.86±0.22 times EYFP positive MSNs in mice infected by AAV8R-hSyn-EYFP were observed as compared to those infected by rAAV2-retro-hSyn-EYFP (FIG. 2A-2C).
Baseline infectivity of rAAV2-retro was approximately 0.2±0.03×10^4 cells per striatal hemisphere (using a hSyn promoter) (TABLE 2). […] Compared to the current standard retrograde AAV, rAAV2-retro, AAV8R12 labeled 7.72±0.78-times more MSNs after nigral delivery (FIG. 2B-2C, TABLE 1). […] The AAV8R12 was generated using the AAV8R plasmid as a template.
Mice were anesthetized with sodium pentobarbital (Nembutal; 80 mg/kg, i.p.), and then placed into a stereotaxic device (KOPF). Eye cream was applied on both corneas to avoid dehydration. The skull above the targeted areas was thinned with a dental drill and carefully removed. Injections were conducted with a 10 μL syringe connected to a 33-Gauge needle (Neuros; Hamilton), using a microsyringe pump (Legato 130, KD Scientific). A total volume of 200 nL virus was injected into the SNr at a speed of 20 nL/min. The coordinates for the SNr were 3.4 mm posterior, 1.3 mm lateral, 4.8 mm ventral to the bregma.
Images were acquired using a confocal microscope (Carl Zeiss, LSM880) and an Axiolmager. Z1 microscope with apotome (Carl Zeiss). Brain structures were identified microscopically and in digital photos using a mouse brain atlas. To analyze the number of EYFP+ cells in the striatum, slices from rostral to caudal striatum were used. Every sixth section was analyzed, and numbers of EYFP+ cells were multiplied by six to acquire the approximate total number and mean number of cells per animal. Images were processed using ImageJ (NIH, USA), and final quantifications were independently performed manually by two blinded experimenters.

[2] = test system: MSNs in nucleus accumbens; assay: Retrograde labeling of accumbal MSNs after delivery into ventral pallidum or lateral hypothalamus; assay type: in vivo, mice; conditions: stereotaxic delivery into ventral pallidum or lateral hypothalamus

B1: AAV8R12: AAV8R capsid mutant V183E + N411S; Cap SEQ ID NO: 59 (protein)
chain: MAADGYLPDWLEDNLSEGIREWWALKPGAPKPKANQQKQDDGRGLVLPGYKYLGPFNGLDKGEPVNAADAAALEHDKAYDQQLQAGDNPYLRYNHADAEFQERLQEDTSFGGNLGRAVFQAKKRVLEPLGLVEEGAKTAPGKKRPVEPSPQRSPDSSTGIGKKGQQPARKRLNFGQTGDSESEPDPQPLGEPPAAPSGVGPNTMAAGGGAPMADNNEGADGVGSSSGNWHCDSTWLGDRVITTSTRTWALPTYNNHLYKQISNGTSGGATNDNTYFGYSTPWGYFDFNRFHCHFSPRDWQRLINNNWGFRPKRLSFKLFNIQVKEVTQNEGTKTIANNLTSTIQVFTDSEYQLPYVLGSAHQGCLPPFPADVFMIPQYGYLTLNDGSQAVGRSSFYCLEYFPSQMLRTGNSFQFTYTFEDVPFHSSYAHSQSLDRLMNPLIDQYLYYLSRTQTTGGTANTQTLGFSQGGPNTMANQAKNWLPGPCYRQQRVSTTTGQNNNSNFAWTAGTKYHLNGRNSLANPGIAMATHKDDEERFFPSNGILIFGKQNAARDNADYSDVMLTSEEEIKTTNPVATEEYGIVADNLQRGNLADQDYTKTARQAATADVNSQGALPGMVWQNRDVYLQGPIWAKIPHTDGNFHPSPLMGGFGLKHPPPQILIKNTPVPADPPTTFNQSKLNSFITQYSTGQVSVEIEWELQKENSKRWNPEIQYTSNYYKSINVDFAVNTEGVYSEPRPIGTRYLTRNL
Labeling Efficiency in Striatonigral Pathway ([1]; AAV8R capsid mutants, numbers of labeled neurons per animal): +++ (10k-25k) | EYFP positive / labeled MSNs compared to rAAV2-retro ([1]; after nigral delivery, hSyn-EYFP): 7.72±0.78 times | labeled striatonigral projection neurons (FIG. 2C), mean±SEM ([1]; capsid comparison, injection into SNr of wild type mice, n=3 mice per group): 16026±1654 | Mean (AAVs with capsid and promoter) ([1]; labeled cells after nigral injection in mice, b188 refers to it as cells per striatal hemisphere, SD and SEM in own columns): 16026 | labeling of MSNs in nucleus accumbens [2]: robust labeling of MSNs
